Experimental findings from article doi:10.1101/2025.05.22.655646 (bioRxiv, 2025) are described below.

First the molecules themselves.
B1: G001_gp1_V10_VRC01c_179 (antibody, V domains shown)
VH: QVQLVQSGADVKKPGASVKVSCKASGYTFTDYYMHWVRQAPGQGLEWMGWINPNSGGTNYAQKFQDRVTMTRDTSVSTAYMEVSGLRSDDTAVYYCARIKLCNGGSCNWSLGYWGQGSLVTVSS
VL: DIQMTQSPSSLSASVGDRVTITCQASQDISNYLNWYQQKPGKAPKLLIYGASNLETGVPSRFSGSGSGTDFTFTISSLQPEDIATYYCQQYEFFGPGTKVDIK
notes: also called G001-179
B2: G001_LD_07A_VRC01c_59 (antibody, V domains shown)
VH: QVQLVQSGAEVKKPGTSVKVSCKASEYTFTGYYVHWVRQAPGQGLEWMGWINPNSGGTNYAQKFQGWVTMTRDTSISTAYMELSRLKSDDTAVYYCARSDYISSWYFGYWGQGTLVTVSS
VL: EIVMTQSPATLSVSPGERATLSCRASQSVSSNLAWYQQKPGQAPRLLIYGTSTRATGIPARFSGSGSGTEFTLTISSLQSEDFAVYYCQQYETFGQGTKVEIK
notes: also called G001-59
B3: G001_gp1_V10_VRC01c_2021-0087 (antibody, V domains shown)
VH: QVQLVQSGAEVKKPGASVKVSCKASGYTFTGNYIHWVRQAPGQGLEWVGWLNPNSGGTNYAQQFQGRVTMTRDTSISTAYMELNRLRSDDTAVFYCARGLWQWEFRYWGQGTLVTVSS
VL: DIVLTQSPGTLSLSPGERATLSCRASQSVSSSNLAWYQQKPGQAPRLLIYGASSRATGIPDRFSGSGSGTDFTLTISRLEPEDCAVYYCQQYEGFGGGTKVEIK
notes: also called G001-0087
B4: G001_LD_07A_VRC01c_58 (antibody, V domains shown)
VH: QVQLVQSGAEVRKPGASVKVSCKASGYTFTDYYIHWVRQAPGQGLEWMGWINPNSGGTNYAQKFQGWVTMTRDTSISTAHMELRRLRSDDRAVYYCARGVVHSGFEFGYWGQGTLVTVSS
VL: DIQMTQSPSTLSASVGDRVTITCRASQSISNWLAWYQQKPGKAPKLLIYKASSLESGVPSRFSGSGSGTEFTLTISSLQPDDFATYYCQQYETFGQGTKVEIK
notes: also called G001-58

In the assay the target is T1, eOD-GT8 (Human immunodeficiency virus 1, …).
T1 construct: also called engineered outer domain germline-targeting version 8; eOD-GT8 monomer
Briefly: SPR; monoclonal IgGs and eOD-GT8; as previously described (ref. 19). The following applies: both partners purified. In general terms: Surface plasmon resonance follows binding to a sensor surface in real time, without labels.
For orientation: Kd means the free concentration of one partner at which half of the binding sites on the other are occupied at equilibrium, for simple one-to-one binding. On to B1, for which binding was characterised by a dissociation constant (Kd) of 0.13 nM. The result for B2 reads 1.76 nM. Then B3, with 0.15 nM; and B4, with 0.437 nM.
